Tests used:
[1] = biological target: T1, huCD33-G69-Fc recombinant protein (human, UniProt P20138 18-259); assay: BLI;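 further: biolayer interferometry: scFvs captured from periplasmic extracts on anti-V5-loaded streptavidin biosensors, antigen association for 2 min, buffer dissociation for 5 min, 1:1 Langmuir fit giving off-rate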
T1 construct: extracellular domain; also called CD33 R69G
Procedure: Discovered scFvs were analyzed for binding to huCD33-R69-His or huCD33-G69-Fc recombinant proteins (for anti-CD33 scFvs; for CLL-1 scFvs, huCLL1-K244-Avi-Tev-His or huCLL1-Q244-Avi-Tev-His were used; for FLT3, huFLT3-T227-His or huFLT3-M227-Fc were used) using BLI on a ForteBio Octet HTX instrument. Streptavidin-coated biosensors were loaded with biotinylated anti-V5 tag monoclonal antibody for 5 min and were then quenched and blocked with 20 μM amine-PEG2-Biotin for 5 min. scFvs were captured on biosensors from scFv clone periplasmic extracts. huCD33 (or huCLL-1, or huFLT3) proteins were then associated with the captured scFvs for 2 minutes, followed by dissociation with buffer (1×HBST [10 mM HEPES pH 7.4, 150 mM NaCl, 0.05% Tween-20], 1 g/L BSA) for 5 minutes. […] Data was fitted with 1:1 Langmuir equation and off-rate values were reported.

[2] = biological target: T2, huCD33-G69 stably expressed on Jurkat cells (human, UniProt P20138 18-364); assay: FACS on cells;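 further: fixed Jurkat lines probed with myc-tagged scFv periplasmic extracts, anti-myc PE flow cytometry, PE MFI fold binned − <2, + 2–10, ++ 10–30, +++ >30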
T2 construct: whole, on cells; >200,000 receptors per cell; also called CD33 Mutant; CD33 R69G

[3] = biological target: T3, huCD33-R69 stably expressed on Jurkat cells (human, UniProt P20138 18-364); assay: FACS on cells;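 further: fixed Jurkat lines probed with myc-tagged scFv periplasmic extracts, anti-myc PE flow cytometry, PE MFI fold binned − <2, + 2–10, ++ 10–30, +++ >30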
T3 construct: whole, on cells; >200,000 receptors per cell; also called CD33 WT; CD33^ARG69
T3 sequence (P20138 18-364): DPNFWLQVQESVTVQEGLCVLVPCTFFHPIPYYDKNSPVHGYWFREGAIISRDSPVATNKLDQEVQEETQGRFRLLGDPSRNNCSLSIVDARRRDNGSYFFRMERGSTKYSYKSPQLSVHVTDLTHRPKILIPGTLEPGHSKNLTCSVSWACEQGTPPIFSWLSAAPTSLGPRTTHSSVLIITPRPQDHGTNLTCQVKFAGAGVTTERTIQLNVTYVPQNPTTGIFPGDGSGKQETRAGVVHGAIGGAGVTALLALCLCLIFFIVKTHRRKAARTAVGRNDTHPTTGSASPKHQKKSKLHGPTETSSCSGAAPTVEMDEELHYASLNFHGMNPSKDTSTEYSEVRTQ

T1 sequence (P20138 18-259 R69G): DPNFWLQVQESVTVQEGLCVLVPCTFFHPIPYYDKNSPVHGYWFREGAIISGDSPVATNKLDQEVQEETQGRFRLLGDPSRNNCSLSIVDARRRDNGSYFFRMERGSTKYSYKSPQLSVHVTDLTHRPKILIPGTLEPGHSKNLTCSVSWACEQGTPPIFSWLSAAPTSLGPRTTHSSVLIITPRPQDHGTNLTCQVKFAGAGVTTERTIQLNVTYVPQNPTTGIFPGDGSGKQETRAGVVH
T2 sequence (P20138 18-364 R69G): as the sequence (P20138 18-364) above, with R52G counted along it

Row | binding result [1] | FACS geometric mean fold change over Jurkat parental [2] | FACS geometric mean fold change over Jurkat parental [3] | Binder
1 | binds | 10 to 30 fold | 10 to 30 fold | Polypeptide No. 136 (scFv, V domains shown, scFv) VH: QVQLVQSGAEVKKPGASVKVSCKASGDTLTNHFVHWVRQAPGQGLEWMGWMNPNSGNTGYAQKFQGRVTMTRDTSTSTVYMELSSLRSEDTAVYYCARDPQMGAVAGGFDYWGQGTLVTVSS VL: DIQMTQSPSSLSASVGDRVTITCRASQRIGNWLAWYQQKPGKAPKLLIYAASSLQSGVPSRFSGSGSGTDFTLTISSLQPEDFATYYCQQSYSPPLTFGPGTKVDIKR
2 | binds | > 30 fold | > 30 fold | Polypeptide No. 134 (scFv, V domains shown, scFv) VH: QVQLVQSGAEVKKPGASVKVSCKASGYTFDSYLLHWVRQAPGQGLEWMGMINPSGAGTTYAQKFQGRVTMTRDTSTSTVYMELSSLRSEDTAVYYCAKEGSIAAGYYFDSWGQGTLVTVSS VL: DIQMTQSPSSLSASVGDRVTITCRASQSIDSWLAWYQQKPGKAPKLLIYAASSLQSGVPSRFSGSGSGTDFTLTISSLQPEDFATYYCQQSYTTPITFGGGTKVEIKR
3 | binds | 10 to 30 fold | 10 to 30 fold | Polypeptide No. 128 (scFv, V domains shown, scFv) VH: QVQLVQSGAEVKKPGASVKVSCKASGYTFTNYYIHWVRQAPGQGLEWLGWTNPINGDTGSAQKFQGRVTMTRDTSTSTVYMELSSLRSEDTAVYYCAKEGQLAWADYYYYMDVWGKGTTVTVSS VL: DIQMTQSPSSLSASVGDRVTITCRASQGISSALAWYQQKPGKAPKLLIYAASSLQSGVPSRFSGSGSGTDFTLTISSLQPEDFATYYCQQSYSTPLTFGGGTKVEIKR
4 | binds | 10 to 30 fold | > 30 fold | Polypeptide No. 126 (scFv, V domains shown, scFv) VH: EVQLLESGGGLVQPGGSLRLSCAASGFTFTTYDMHWVRQAPGKGLEWVAGINWNSVIIDYADSVKGRFTISRDNSKNTLYLQMNSLRAEDTAVYYCAKDLLYYYDSIGAFDIWGQGTMVTVSS VL: DIQMTQSPSSLSASVGDRVTITCRASQSISTWLAWYQQKPGKAPKLLIYAASSLQSGVPSRFSGSGSGTDFTLTISSLQPEDFATYYCQQSDTLPLTFGGGTKVEIKR
5 | binds | > 30 fold | > 30 fold | Polypeptide No. 123 (scFv, V domains shown, scFv) VH: EVQLLESGGGLVQPGGSLRLSCAASGFILGNAWMHWVRQAPGKGLEWVASVSGDGSDENYADSVKGRFTISRDNSKNTLYLQMNSLRAEDTAVYYCARDTHDYGDYAPFDYWGQGTLVTVSS VL: DIQMTQSPSSLSASVGDRVTITCQASQDINNYLNWYQQKPGKAPKLLIYAASNLQSGVPSRFSGSGSGTDFTLTISSLQPEDFATYYCQQTYSFPLTFGGGTKVEIKR
6 | binds | > 30 fold | 10 to 30 fold | Polypeptide No. 119 (scFv, V domains shown, scFv) VH: QVQLVQSGAEVKKPGASVKVSCKASGNTLTNDHIHWVRQAPGQGLEWMGWMNPNSGDTGYAQKFQGRVTMTRDTSTSTVYMELSSLRSEDTAVYYCARAGVDTAMVTYYYYGMDVWGQGTTVTVSS VL: not shown
7 | binds | > 30 fold | 10 to 30 fold | Polypeptide No. 122 (scFv, V domains shown, scFv) VH: QVQLVQSGAEVKKPGASVKVSCKASGYTFTDYWLHWVRQAPGQGLEWMGTINPSGGSTSYSHKFQGRVTMTRDTSTSTVYMELSSLRSEDTAVYYCAKEEEGFWSGYAFDYWGQGTLVTVSS VL: not shown

The remaining lines, values behind:

Row | Binder | binding result [1] | FACS geometric mean fold change over Jurkat parental [2] | FACS geometric mean fold change over Jurkat parental [3]
8 | Polypeptide No. 124 (scFv, V domains shown, scFv) VH: EVQLVESGGGLVKPGGSLRLSCAASGFTFSSYWMHWVRQAPGKGLEWVAVIWYDGSNKYYADSVKGRFTISRDDSKNTLYLQMNSLKTEDTAVYYCVRDGARSGMDVWGQGTTVTVSS VL: EIVMTQSPATLSVSPGERATLSCRASQSVSTYVAWYQQKPGQAPRLLIYGASTRATGIPARFSGSGSGTEFTLTISSLQSEDFAVYYCQQYYDTPLTFGGGTKVEIKR | binds | > 30 fold | > 30 fold
9 | Polypeptide No. 132 (scFv, V domains shown, scFv) VH: EVQLLESGGGLVQPGGSLRLSCAASGFTFNNYGMHWVRQAPGKGLEWVSAISGSGGSTYYADSVKGRFTISRDNSKNTLYLQMNSLRAEDTAVYYCAREYMQQPHGGMDVWGQGTTVTVSS VL: EIVMTQSPATLSVSPGERATLSCRASQSVNSYLAWYQQKPGQAPRLLIYGASTRATGIPARFSGSGSGTEFTLTISSLQSEDFAVYYCQQYGSSPLSFGGGTKVEIKR | binds | 10 to 30 fold | 2 to 10 fold
10 | Polypeptide No. 121 (scFv, V domains shown, scFv) VH: QVQLVQSGAEVKKPGASVKVSCKASGDSFTDYYIHWVRQAPGQGLEWMGWMNPNSGNTGYAQQFQGRVTMTRDTSTSTVYMELSSLRSEDTAVYYCARDREYSSSSRYFDLWGRGTLVTVSS VL: DIQMTQSPSSLSASVGDRVTITCRASQNIGNWLAWYQQKPGKAPKLLIYAASTLQSGVPSRFSGSGSGTDFTLTISSLQPEDFATYYCQQSYNSITFGPGTKVDIKR | binds | 10 to 30 fold | 10 to 30 fold
11 | Polypeptide No. 129 (scFv, V domains shown, scFv) VH: EVQLVESGGGLVKPGGSLRLSCAASGFSLRNYWMHWVRQAPGKGLEWVSGISGSGGSTYYADSVKGRFTISRDDSKNTLYLQMNSLKTEDTAVYYCARDYTGVVDYWGQGTLVTVSS VL: not shown | binds | 10 to 30 fold | 10 to 30 fold
12 | Polypeptide No. 130 (scFv, V domains shown, scFv) VH: QVQLVQSGAEVKKPGASVKVSCKASGGTFSNYAISWVRQAPGQGLEWMAWMNPNSGNTGYAQKFQGRVTMTRDTSTSTVYMELSSLRSEDTAVYYCARDGFIGFGELFSAFDIWGQGTMVTVSS VL: DIQMTQSPSSLSASVGDRVTITCRASQSIGTWLAWYQQKPGKAPKLLIYGATRLLSGVPSRFSGSGSGTDFTLTISSLQPEDFATYYCQQSYSTPPTFGQGTKLEIKR | binds | 10 to 30 fold | 10 to 30 fold
13 | Polypeptide No. 125 (scFv, V domains shown, scFv) VH: QVQLVQSGAEVKKPGASVKVSCKASGYSFTTYDIHWVRQAPGQGLEWMGWMNPNSGNTGYAQKFQGRVTMTRDTSTSTVYMELSSLRSEDTAVYYCATDHWVLGGFDYWGQGTLVTVSS VL: DIQMTQSPSSLSASVGDRVTITCQASQDISNYLNWYQQKPGKAPKLLIYAASTLQSGVPSRFSGSGSGTDFTLTISSLQPEDFATYYCQQYSYLPVTFGQGTKLEIKR | binds | > 30 fold | > 30 fold
14 | Polypeptide No. 133 (scFv, V domains shown, scFv) VH: EVQLLESGGGLVQPGGSLRLSCAASGFTFSSSWMHWVRQAPGKGLEWVSAISSSGDATYYADSVKGRFTISRDNSKNTLYLQMNSLRAEDTAVYYCAKFSDGGAGDSDYWGQGTLVTVSS VL: DIQMTQSPSSLSASVGDRVTITCRASQGISSYLAWYQQKPGKAPKLLIYTASSLQSGVPSRFSGSGSGTDFTLTISSLQPEDFATYYCQQYDNLPITFGQGTRLEIKR | binds | 2 to 10 fold | 2 to 10 fold
15 | Polypeptide No. 131 (scFv, V domains shown, scFv) VH: QVQLVQSGAEVKKPGASVKVSCKASGGTFSNYAINWVRQAPGQGLEWMGWINPNSGGTDSAQKFQGRVTMTRDTSTSTVYMELSSLRSEDTAVYYCARDSSLALSYGGNSEYYYGMDVWGQGTTVTVSS VL: DIQMTQSPSSLSASVGDRVTITCQASQDISDHLNWYQQKPGKAPKLLIYGASTLQSGVPSRFSGSGSGTDFTLTISSLQPEDFATYYCQQAYSFPWTFGQGTKLEIKR | binds | 10 to 30 fold | > 30 fold
16 | Polypeptide No. 135 (scFv, V domains shown, scFv) VH: QVQLVQSGAEVKKPGASVKVSCKASGYSFTTYGITWVRQAPGQGLEWMGWINPNSGNAGYAQKFQGRVTMTRDTSTSTVYMELSSLRSEDTAVYYCASDLAGYSSGYFDLWGRGTLVTVSS VL: not shown | binds | > 30 fold | 10 to 30 fold
17 | Polypeptide No. 127 (scFv, V domains shown, scFv) VH: QVQLVQSGAEVKKPGASVKVSCKASGYTFTNHHMHWVRQAPGQGLEWMGMINPSGGSTSYAQKFQGRVTMTRDTSTSTVYMELSSLRSEDTAVYYCARGRPVDIVATYYFDYWGQGTLVTVSS VL: DIQMTQSPSSLSASVGDRVTITCQASQDIRNFLNWYQQKPGKAPKLLIYGASTLHSGVPSRFSGSGSGTDFTLTISSLQPEDFATYYCQQSYSTPLTFGGGTKVEIKR | binds | 10 to 30 fold | 10 to 30 fold
18 | Polypeptide No. 120 (scFv, V domains shown, scFv) VH: QVQLVQSGAEVKKPGASVKVSCKASGYTFTTYYMHWVRQAPGQGLEWMGWMNPNSGNTGYAQKFQGRVTMTRDTSTSTVYMELSSLRSEDTAVYYCARGHKVDSGYDPYGMDVWGQGTTVTVSS VL: DIQMTQSPSSLSASVGDRVTITCRASQSIGTYLHWYQQKPGKAPKLLIYAISTLQNGVPSRFSGSGSGTDFTLTISSLQPEDFATYYCQQSYSPPLTFGGGTKVEIKR | binds | > 30 fold | > 30 fold

Reference: patent publication US20240101668A1 (WUGEN, published 2024)
